Targets include β1 integrin (human) (UniProt P05556); α2 integrin (human) (UniProt P17301); α6 integrin (human) (UniProt P23229); α2β1 integrin (human) (UniProt P17301); α5 integrin (human) (UniProt P08648); αvβ1 integrin (human) (UniProt P06756); α1 integrin (human) (UniProt P56199); α9 integrin (human) (UniProt Q13797).
What all share (assay): cell-based or functional assay
Experiment [1] concerns the target αv integrin subunit (rat hippocampus) (rat).

Chain of UniProt P05556 (P05556 21-798): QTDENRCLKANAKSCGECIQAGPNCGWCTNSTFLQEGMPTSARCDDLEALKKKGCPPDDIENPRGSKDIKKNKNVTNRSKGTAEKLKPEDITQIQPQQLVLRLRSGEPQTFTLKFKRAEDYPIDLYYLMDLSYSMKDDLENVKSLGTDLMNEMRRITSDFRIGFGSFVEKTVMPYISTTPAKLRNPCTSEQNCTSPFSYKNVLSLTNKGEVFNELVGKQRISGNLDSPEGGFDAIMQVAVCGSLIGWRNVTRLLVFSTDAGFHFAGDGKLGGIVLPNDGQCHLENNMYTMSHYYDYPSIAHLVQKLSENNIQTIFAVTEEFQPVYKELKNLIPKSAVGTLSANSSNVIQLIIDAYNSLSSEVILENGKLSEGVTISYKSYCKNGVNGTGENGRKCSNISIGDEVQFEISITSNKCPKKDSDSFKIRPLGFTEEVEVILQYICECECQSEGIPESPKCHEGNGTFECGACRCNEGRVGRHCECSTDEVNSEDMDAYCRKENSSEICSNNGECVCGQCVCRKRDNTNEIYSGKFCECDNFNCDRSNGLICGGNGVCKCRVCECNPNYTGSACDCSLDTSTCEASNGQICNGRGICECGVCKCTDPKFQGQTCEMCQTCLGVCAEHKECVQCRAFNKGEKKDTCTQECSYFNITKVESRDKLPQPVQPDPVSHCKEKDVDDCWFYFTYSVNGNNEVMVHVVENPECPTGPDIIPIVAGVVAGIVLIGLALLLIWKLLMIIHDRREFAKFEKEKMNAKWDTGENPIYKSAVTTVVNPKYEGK
Chain of UniProt P08648 (P08648 42-1049): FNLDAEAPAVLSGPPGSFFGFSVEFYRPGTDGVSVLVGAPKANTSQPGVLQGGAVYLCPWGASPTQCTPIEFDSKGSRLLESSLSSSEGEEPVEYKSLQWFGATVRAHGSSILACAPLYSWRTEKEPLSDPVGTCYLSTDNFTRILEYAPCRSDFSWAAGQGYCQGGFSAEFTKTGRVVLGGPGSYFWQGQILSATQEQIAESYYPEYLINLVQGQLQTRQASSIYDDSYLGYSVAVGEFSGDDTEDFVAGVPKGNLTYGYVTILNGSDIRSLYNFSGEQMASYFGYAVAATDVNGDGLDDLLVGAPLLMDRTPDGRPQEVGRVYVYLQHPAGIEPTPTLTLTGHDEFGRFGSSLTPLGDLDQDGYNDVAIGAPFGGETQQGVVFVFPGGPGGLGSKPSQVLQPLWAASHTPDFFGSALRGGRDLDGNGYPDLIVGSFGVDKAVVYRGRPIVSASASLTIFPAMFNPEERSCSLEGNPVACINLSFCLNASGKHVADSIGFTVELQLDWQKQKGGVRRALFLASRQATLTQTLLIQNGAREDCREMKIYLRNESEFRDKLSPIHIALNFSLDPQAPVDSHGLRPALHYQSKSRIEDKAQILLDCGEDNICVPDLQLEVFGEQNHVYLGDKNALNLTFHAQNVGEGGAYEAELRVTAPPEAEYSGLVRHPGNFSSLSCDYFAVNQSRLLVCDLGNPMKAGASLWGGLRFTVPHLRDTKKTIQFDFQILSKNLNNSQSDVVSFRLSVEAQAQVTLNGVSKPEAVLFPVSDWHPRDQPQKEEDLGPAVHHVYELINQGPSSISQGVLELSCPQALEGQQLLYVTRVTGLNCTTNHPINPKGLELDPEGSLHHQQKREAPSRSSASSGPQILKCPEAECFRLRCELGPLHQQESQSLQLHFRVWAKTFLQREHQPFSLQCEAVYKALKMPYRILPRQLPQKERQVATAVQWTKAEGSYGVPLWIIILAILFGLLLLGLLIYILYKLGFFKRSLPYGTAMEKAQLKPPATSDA
Chain of UniProt Q13797 (Q13797 30-1035): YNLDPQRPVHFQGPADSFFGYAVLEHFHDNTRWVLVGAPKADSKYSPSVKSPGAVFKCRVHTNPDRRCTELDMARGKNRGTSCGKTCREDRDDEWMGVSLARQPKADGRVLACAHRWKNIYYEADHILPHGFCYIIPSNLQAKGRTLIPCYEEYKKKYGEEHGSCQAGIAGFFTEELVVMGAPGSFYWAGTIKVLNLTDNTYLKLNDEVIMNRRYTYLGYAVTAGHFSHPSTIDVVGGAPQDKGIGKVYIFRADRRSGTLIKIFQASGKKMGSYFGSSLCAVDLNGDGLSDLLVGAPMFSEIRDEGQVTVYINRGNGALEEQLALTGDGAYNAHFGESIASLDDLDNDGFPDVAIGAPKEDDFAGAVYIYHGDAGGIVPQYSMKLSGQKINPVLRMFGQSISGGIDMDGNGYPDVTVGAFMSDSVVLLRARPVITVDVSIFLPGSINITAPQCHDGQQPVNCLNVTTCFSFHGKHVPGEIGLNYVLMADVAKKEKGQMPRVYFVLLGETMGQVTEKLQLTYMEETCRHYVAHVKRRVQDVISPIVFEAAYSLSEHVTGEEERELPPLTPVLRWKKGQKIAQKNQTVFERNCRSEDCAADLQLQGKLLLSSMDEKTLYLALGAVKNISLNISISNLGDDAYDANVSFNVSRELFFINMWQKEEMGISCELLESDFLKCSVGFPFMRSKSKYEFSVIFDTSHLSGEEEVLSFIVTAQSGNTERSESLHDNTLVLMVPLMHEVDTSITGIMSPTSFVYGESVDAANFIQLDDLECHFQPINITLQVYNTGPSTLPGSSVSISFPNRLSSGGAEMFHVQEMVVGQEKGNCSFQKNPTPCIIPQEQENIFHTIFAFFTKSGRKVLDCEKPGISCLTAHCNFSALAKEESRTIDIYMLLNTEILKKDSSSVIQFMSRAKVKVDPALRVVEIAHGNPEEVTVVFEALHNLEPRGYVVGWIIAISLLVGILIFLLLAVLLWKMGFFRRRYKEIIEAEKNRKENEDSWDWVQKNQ
Chain of UniProt P23229 (P23229 24-1130): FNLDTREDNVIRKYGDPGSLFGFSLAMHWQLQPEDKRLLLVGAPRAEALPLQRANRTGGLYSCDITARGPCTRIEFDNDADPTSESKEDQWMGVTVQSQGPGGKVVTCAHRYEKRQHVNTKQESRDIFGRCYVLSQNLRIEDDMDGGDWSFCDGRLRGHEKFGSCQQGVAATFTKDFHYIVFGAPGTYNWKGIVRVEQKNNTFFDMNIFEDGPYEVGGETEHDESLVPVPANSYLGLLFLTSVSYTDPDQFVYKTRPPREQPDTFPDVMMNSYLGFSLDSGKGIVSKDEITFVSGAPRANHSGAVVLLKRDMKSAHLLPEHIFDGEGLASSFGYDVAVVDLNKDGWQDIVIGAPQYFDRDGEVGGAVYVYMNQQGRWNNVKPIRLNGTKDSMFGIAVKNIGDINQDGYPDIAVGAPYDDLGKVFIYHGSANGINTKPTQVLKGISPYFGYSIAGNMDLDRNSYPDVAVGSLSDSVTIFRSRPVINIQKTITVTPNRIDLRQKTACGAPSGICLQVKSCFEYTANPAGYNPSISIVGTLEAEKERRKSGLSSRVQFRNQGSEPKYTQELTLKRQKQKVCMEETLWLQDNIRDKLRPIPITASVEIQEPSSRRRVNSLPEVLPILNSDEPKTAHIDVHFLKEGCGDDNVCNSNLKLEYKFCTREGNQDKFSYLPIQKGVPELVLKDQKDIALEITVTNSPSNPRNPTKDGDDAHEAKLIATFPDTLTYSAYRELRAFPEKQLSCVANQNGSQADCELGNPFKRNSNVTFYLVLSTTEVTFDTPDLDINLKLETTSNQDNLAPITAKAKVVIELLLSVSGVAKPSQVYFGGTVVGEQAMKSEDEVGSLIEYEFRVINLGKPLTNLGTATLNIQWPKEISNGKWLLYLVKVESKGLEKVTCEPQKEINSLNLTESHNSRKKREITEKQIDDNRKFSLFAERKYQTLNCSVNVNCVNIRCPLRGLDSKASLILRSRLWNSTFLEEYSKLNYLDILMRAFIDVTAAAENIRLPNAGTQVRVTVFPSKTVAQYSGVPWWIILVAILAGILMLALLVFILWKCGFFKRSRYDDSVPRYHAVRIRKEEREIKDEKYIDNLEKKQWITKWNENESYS
Chain of UniProt P06756 (P06756 31-1048, chain 1 of 2): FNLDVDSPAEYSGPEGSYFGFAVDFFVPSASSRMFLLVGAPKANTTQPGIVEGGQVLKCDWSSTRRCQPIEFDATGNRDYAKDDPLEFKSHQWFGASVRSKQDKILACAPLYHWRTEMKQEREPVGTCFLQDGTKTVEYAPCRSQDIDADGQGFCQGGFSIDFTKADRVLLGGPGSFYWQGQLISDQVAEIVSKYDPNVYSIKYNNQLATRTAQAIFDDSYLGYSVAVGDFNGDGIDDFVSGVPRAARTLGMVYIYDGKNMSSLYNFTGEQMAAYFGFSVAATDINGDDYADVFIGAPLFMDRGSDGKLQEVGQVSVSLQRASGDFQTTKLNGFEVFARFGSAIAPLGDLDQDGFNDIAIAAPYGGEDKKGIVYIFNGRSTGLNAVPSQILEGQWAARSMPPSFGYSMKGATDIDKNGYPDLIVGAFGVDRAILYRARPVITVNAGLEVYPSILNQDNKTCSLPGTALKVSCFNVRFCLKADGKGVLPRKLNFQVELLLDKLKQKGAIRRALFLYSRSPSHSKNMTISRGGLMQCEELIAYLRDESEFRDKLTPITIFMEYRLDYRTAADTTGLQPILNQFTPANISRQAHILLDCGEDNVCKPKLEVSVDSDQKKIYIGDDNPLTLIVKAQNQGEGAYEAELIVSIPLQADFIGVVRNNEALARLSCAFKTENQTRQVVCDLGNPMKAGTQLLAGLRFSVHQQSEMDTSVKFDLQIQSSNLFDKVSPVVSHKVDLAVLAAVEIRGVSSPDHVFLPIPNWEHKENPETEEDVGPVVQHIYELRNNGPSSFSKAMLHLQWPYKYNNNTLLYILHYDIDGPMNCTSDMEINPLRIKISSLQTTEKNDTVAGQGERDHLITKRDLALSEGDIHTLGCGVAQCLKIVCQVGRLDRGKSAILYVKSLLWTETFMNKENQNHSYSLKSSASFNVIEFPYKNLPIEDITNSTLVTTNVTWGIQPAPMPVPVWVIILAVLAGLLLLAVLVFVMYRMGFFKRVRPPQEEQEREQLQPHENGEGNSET
Chain of UniProt P06756 (P05556 21-798, chain 2 of 2, further chain): as the sequence (P05556 21-798) above

On to 17E6 (antibody), for which, in experiment [1], the LTP in the presence of Aβ plus antibody, CA1 in vivo (% baseline) was determined as 135% and the LTP in the presence of Aβ plus antibody, dentate gyrus in vitro (% baseline) came to 153%.

In the case of AIIB2 (antibody), the Maximal inhibition of toxicity (%) with β1 integrin (human) was 100%.

On to Gi9 (antibody), for which the Maximal inhibition of toxicity (%) in the experiment with α2 integrin (human) is 100%.

GoH3 (antibody) showed a Maximal inhibition of toxicity (%) with α6 integrin (human) of 40%.

Laminin (ligand): in the experiment with α2β1 integrin (human), the Maximal inhibition of toxicity (%) came to 20%.

The molecule P1D6 (antibody) gave a Maximal inhibition of toxicity (%) in the experiment with α5 integrin (human) of 5%.

In turn, SAM1 (antibody) registered a Maximal inhibition of toxicity (%) with α5 integrin (human) of 5%.

For the molecule Superfibronectin (ligand), in the experiment with αvβ1 integrin (human), the Maximal inhibition of toxicity (%) was 100%. Moreover, the LTP in the presence of Aβ plus superfibronectin, dentate gyrus in vitro (% baseline) in experiment [1] turned out to be 147%.

Turning to TS2/7 (antibody), in the experiment with α1 integrin (human), the Maximal inhibition of toxicity (%) was determined as 5%.

In the experiment with β1 integrin (human), TS2/16 (activating) (antibody) registered a Maximal inhibition of toxicity (%) of 0%.

For the molecule Y9A2 (antibody), in the experiment with α9 integrin (human), the Maximal inhibition of toxicity (%) turned out to be 0%.

For “echistatin (from UniProt P17347 131-179) (peptide)”, the LTP in the presence of Aβ plus echistatin, dentate gyrus in vitro (% baseline) in experiment [1] worked out at 143%.

B1: MAB1998 (antibody, from another filing, V domains shown)
VH: QVQLKESGPGLVAPSQSLSITCTVSGFSLTNYGIHWVRQPPGKGLEWLGVIWARGFTNYNSALMSRLIITKDNSQSQVFLKMNSLQPDDSATYFCARANDGVYYAMDYWGQGTSVTVSS
VL: QFVLTQSPAFLSASPGEKVTMTCSANSSVNYIHWYQQKSGTSPKKWIYDTSKLASGVPVRFSGSGSGTSYSLTISSMETEDAATYYCQQWTTNPLTFGAGTRVELK
In turn, B1 gave a Maximal inhibition of toxicity (%) with α2 integrin (human) of 25%.
